Assay results from patent publication US20230235013A1 (MABSOLVE, published 2023).
Changes are numbered by the printed parent chain. Names may count otherwise. Blank lines part the entries; values can stand above or below the binder they belong to.

Biological target: T1, Histidine-tagged recombinant human FcγRI (CD64) (human, UniProt P12314 16-288)
T1 construct: bought; also called Sino Biological Cat. No. 12056-H08H
Assay: SPR, culture supernatant, captured His-FcγRI;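 also: biacore T200 SPR at 25 °C, anti-His capture, supernatants of HEK293 cells expressing IgG1 Fc variants injected 1 min, reference-subtracted response read 55 s after injection start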

B1: anti-CD20 human IgG1 L234K/L235H/G236R (antibody)
heavy: QVQLQQPGAELVKPGASVKMSCKASGYTFTSYNMHWVKQTPGRGLEWIGAIYPGNGDTSYNQKFKGKATLTADKSSSTAYMQLSSLTSEDSAVYYCARSTYYGGDWYFNVWGAGTTVTVSSASTKGPSVFPLAPSSKSTSGGTAALGCLVKDYFPEPVTVSWNSGALTSGVHTFPAVLQSSGLYSLSSVVTVPSSSLGTQTYICNVNHKPSNTKVDKKVEPKSCDKTHTCPPCPAPEKHRGPSVFLFPPKPKDTLMISRTPEVTCVVVDVSHEDPEVKFNWYVDGVEVHNAKTKPREEQYNSTYRVVSVLTVLHQDWLNGKEYKCKVSNKALPAPIEKTISKAKGQPREPQVYTLPPSRDELTKNQVSLTCLVKGFYPSDIAVEWESNGQPENNYKTTPPVLDSDGSFFLYSKLTVDKSRWQQGNVFSCSVMHEALHNHYTQKSLSLSPGK
light: QIVLSQSPAILSASPGEKVTMTCRASSSVSYIHWFQQKPGSSPKPWIYATSNLASGVPVRFSGSGSGTSYSLTISRVEAEDAATYYCQQWTSNPPTFGGGTKLEIKRTVAAPSVFIFPPSDEQLKSGTASVVCLLNNFYPREAKVQWKVDNALQSGNSQESVTEQDSKDSTYSLSSTLTLSKADYEKHKVYACEVTHQGLSSPVTKSFNRGEC
notes: also called 1-81; copies: 2 + 2
Mean binding response: 25.3 RU

B2: anti-CD20 human IgG1 L234K/L235N/G236R (antibody)
heavy: B1 heavy with H239N
light: B1 light
notes: also called 1-86; copies: 2 + 2
Mean binding response: 24.8 RU

B3: anti-CD20 human IgG1 L234N/L235H/G236R (antibody)
heavy: B1 heavy with K238N
light: B1 light
notes: also called 1-96; copies: 2 + 2
Mean binding response: 17.7 RU

B8: anti-CD20 human IgG1 L234K/L235M/G236R (antibody)
heavy: B1 heavy with H239M
light: B1 light
notes: also called 1-85; copies: 2 + 2
Mean binding response: 23.9 RU

B10: anti-CD20 human IgG1 L234N/L235D/G236R (antibody)
heavy: B1 heavy with K238N, H239D
light: B1 light
notes: also called 1-93; copies: 2 + 2
Mean binding response: 13.4 RU

B15: anti-CD20 human IgG1 L234N/L235A/G236R (antibody)
heavy: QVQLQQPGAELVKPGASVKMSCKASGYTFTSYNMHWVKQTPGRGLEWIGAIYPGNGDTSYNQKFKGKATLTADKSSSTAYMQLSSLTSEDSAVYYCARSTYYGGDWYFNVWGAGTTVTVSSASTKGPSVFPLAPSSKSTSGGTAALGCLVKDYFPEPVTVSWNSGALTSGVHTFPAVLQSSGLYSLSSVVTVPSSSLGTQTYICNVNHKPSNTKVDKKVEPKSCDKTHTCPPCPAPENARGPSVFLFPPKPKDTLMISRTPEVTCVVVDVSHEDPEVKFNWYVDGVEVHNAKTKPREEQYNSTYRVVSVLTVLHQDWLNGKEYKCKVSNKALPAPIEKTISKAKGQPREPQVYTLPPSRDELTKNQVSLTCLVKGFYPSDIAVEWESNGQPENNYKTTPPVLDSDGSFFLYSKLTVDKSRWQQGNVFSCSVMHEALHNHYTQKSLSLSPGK
light: B1 light
notes: also called 1-92; copies: 2 + 2
Mean binding response: 22.3 RU

B16: anti-CD20 human IgG1 L234K/L235I/G236R (antibody)
heavy: B1 heavy with H239I
light: B1 light
notes: also called 1-82; copies: 2 + 2
Mean binding response: 30.9 RU

B18: anti-CD20 human IgG1 L234N/L235I/G236R (antibody)
heavy: B1 heavy with K238N, H239I
light: B1 light
notes: also called 1-97; copies: 2 + 2
Mean binding response: 14.1 RU

B20: anti-CD20 human IgG1 L234K/L235Q/G236R (antibody)
heavy: B1 heavy with H239Q
light: B1 light
notes: also called 1-87; 2-22; copies: 2 + 2
Mean binding response: 8.4 RU

B21: anti-CD20 human IgG1 L234K/L235K/G236R (antibody)
heavy: B1 heavy with H239K
light: B1 light
notes: also called 1-83; copies: 2 + 2
Mean binding response: 37.6 RU

B22: anti-CD20 human IgG1 L234N/L235E/G236R (antibody)
heavy: B1 heavy with K238N, H239E
light: B1 light
notes: also called 1-94; copies: 2 + 2
Mean binding response: 16.4 RU

B23: anti-CD20 human IgG1 L234N/G236R (antibody)
heavy: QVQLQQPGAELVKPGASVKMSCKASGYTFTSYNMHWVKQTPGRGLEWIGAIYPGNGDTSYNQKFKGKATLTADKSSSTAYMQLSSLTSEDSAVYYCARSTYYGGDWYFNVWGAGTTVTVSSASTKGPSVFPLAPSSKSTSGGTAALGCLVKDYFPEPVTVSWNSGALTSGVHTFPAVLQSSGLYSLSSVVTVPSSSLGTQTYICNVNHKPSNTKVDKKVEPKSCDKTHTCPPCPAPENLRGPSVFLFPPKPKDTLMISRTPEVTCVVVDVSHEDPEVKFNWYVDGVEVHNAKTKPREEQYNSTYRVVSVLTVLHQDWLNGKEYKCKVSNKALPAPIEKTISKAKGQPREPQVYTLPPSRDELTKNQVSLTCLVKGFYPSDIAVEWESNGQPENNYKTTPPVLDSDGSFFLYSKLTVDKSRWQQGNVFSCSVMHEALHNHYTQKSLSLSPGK
light: B1 light
notes: also called 1-99; copies: 2 + 2
Mean binding response: 22.3 RU

B24: anti-CD20 human IgG1 L234N/L235G/G236R (antibody)
heavy: B1 heavy with K238N, H239G
light: B1 light
notes: also called 1-95; copies: 2 + 2
Mean binding response: 22.1 RU

More lines, now with the values ahead:

Mean binding response: 4.5 RU
B4: anti-CD20 human IgG1 L234N/L235Q/G236R (antibody)
heavy: B1 heavy with K238N, H239Q
light: B1 light
notes: copies: 2 + 2

Mean binding response: 16.9 RU
B5: anti-CD20 human IgG1 L234N/L235N/G236R (antibody)
heavy: B1 heavy with K238N, H239N
light: B1 light
notes: copies: 2 + 2

Mean binding response: 34.7 RU
B6: anti-CD20 human IgG1 L234Q/L235I/G236R (antibody)
heavy: B1 heavy with K238Q, H239I
light: B1 light
notes: copies: 2 + 2

Mean binding response: 28.8 RU
B7: anti-CD20 human IgG1 L234Q/L235E/G236R (antibody)
heavy: B1 heavy with K238Q, H239E
light: B1 light
notes: copies: 2 + 2

Mean binding response: 38.4 RU
B9: anti-CD20 human IgG1 L234Q/L235M/G236R (antibody)
heavy: B1 heavy with K238Q, H239M
light: B1 light
notes: also called 1-115; copies: 2 + 2

Mean binding response: 16.8 RU
B11: anti-CD20 human IgG1 L234Q/L235Q/G236R (antibody)
heavy: B1 heavy with K238Q, H239Q
light: B1 light
notes: also called 2-31; copies: 2 + 2

Mean binding response: 28.1 RU
B12: anti-CD20 human IgG1 L234Q/L235G/G236R (antibody)
heavy: B1 heavy with K238Q, H239G
light: B1 light
notes: also called 1-110; copies: 2 + 2

Mean binding response: 8.6 RU
B13: anti-CD20 human IgG1 L234N/L235T/G236R (antibody)
heavy: B1 heavy with K238N, H239T
light: B1 light
notes: copies: 2 + 2

Mean binding response: 10 RU
B14: anti-CD20 human IgG1 L234Q/L235H/G236R (antibody)
heavy: B1 heavy with K238Q
light: B1 light
notes: also called 2-29; copies: 2 + 2

Mean binding response: 18.9 RU
B17: anti-CD20 human IgG1 L234N/L235V/G236R (antibody)
heavy: B1 heavy with K238N, H239V
light: B1 light
notes: copies: 2 + 2

Mean binding response: 26.9 RU
B19: anti-CD20 human IgG1 L234Q/L235K/G236R (antibody)
heavy: B1 heavy with K238Q, H239K
light: B1 light
notes: copies: 2 + 2

Mean binding response: 18.4 RU
B25: anti-CD20 human IgG1 L234N/L235S/G236R (antibody)
heavy: B1 heavy with K238N, H239S
light: B1 light
notes: copies: 2 + 2

Mean binding response: 30.4 RU
B26: anti-CD20 human IgG1 L234N/L235R/G236R (antibody)
heavy: B1 heavy with K238N, H239R
light: B1 light
notes: copies: 2 + 2

Mean binding response: 26.8 RU
B27: anti-CD20 human IgG1 L234Q/L235N/G236R (antibody)
heavy: B1 heavy with K238Q, H239N
light: B1 light
notes: copies: 2 + 2

Mean binding response: 25 RU
B28: anti-CD20 human IgG1 L234N/L235K/G236R (antibody)
heavy: B1 heavy with K238N, H239K
light: B1 light
notes: also called 1-98; copies: 2 + 2
